Test results: patent publication US20090081197A1, “Methods for Selection of Melanocortin Receptor-Specific Agents for Treatment of Obesity” (Palatin Technologies, Inc., priority 2007, published 2009)

How the values were obtained:
[1] = target: human melanocortin 4 receptor (human) (UniProt P32245); assay: radioligand competition, [I125]-NDP-α-MSH, hMC4-R membranes, 1 µM compound
[2] = target: human melanocortin 3 receptor (human) (UniProt P41968); assay: radioligand competition, [I125]-NDP-α-MSH, hMC3-R membranes
[3] = target: human melanocortin 4 receptor (human) (UniProt P32245); assay: cell-based or functional assay
[4] = target: MC1-R of B-16 mouse melanoma cells (mouse) (UniProt Q01727); assay: radioligand competition, [I125]-NDP-α-MSH, B-16 membranes
[5] = target: human melanocortin 5 receptor (human) (UniProt P33032); assay: radioligand competition, [I125]-NDP-α-MSH, hMC5-R membranes, 1 µM compound
[6] = target: MC1-R of B-16 mouse melanoma cells (mouse) (UniProt Q01727); assay: radioligand competition, [I125]-NDP-α-MSH, B-16 membranes, 1 µM compound
[7] = target: human melanocortin 5 receptor (human) (UniProt P33032); assay: radioligand competition, [I125]-NDP-α-MSH, hMC5-R membranes
[8] = target: human melanocortin 4 receptor (human) (UniProt P32245); assay: radioligand competition, [I125]-NDP-α-MSH, hMC4-R membranes
[9] = target: human melanocortin 3 receptor (human) (UniProt P41968); assay: radioligand competition, [I125]-NDP-α-MSH, hMC3-R membranes, 1 µM compound

Sequence of MC1-R of B-16 mouse melanoma cells (mouse) (Q01727 whole entry): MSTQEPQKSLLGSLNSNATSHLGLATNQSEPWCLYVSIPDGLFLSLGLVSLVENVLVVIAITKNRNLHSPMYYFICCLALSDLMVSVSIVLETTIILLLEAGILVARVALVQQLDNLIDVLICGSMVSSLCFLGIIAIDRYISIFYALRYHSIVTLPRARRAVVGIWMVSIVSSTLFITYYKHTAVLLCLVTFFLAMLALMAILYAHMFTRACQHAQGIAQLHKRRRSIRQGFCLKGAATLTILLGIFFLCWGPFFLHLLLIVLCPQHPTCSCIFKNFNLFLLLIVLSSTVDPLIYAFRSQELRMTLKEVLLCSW
Sequence of human melanocortin 3 receptor (human) (P41968 whole entry): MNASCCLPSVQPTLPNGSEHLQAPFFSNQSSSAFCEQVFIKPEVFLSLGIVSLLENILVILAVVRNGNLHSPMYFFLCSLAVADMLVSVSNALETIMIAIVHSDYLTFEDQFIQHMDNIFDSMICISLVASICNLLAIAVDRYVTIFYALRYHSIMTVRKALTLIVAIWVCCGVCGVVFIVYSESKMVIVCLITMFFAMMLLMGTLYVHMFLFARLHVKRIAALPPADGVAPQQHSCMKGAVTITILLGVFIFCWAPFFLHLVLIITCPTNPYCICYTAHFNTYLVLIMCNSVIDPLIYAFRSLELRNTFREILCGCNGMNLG
Sequence of human melanocortin 5 receptor (human) (P33032 whole entry): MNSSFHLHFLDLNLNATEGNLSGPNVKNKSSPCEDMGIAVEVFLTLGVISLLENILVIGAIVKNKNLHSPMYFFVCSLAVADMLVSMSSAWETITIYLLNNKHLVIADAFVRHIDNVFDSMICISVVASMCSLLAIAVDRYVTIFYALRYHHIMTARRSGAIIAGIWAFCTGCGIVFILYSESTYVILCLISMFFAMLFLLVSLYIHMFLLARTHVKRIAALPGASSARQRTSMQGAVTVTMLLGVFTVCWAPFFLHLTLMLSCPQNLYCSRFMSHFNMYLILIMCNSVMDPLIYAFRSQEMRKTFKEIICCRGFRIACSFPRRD
Sequence of human melanocortin 4 receptor (human) (P32245 whole entry): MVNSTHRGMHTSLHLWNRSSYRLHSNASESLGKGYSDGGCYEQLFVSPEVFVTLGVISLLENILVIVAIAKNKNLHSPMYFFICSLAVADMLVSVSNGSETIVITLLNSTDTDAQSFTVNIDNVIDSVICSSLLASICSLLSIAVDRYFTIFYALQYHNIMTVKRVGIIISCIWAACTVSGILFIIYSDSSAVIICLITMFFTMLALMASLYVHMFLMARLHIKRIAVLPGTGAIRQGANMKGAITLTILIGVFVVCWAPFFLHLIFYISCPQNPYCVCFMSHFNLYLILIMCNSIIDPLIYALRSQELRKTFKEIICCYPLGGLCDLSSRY

Inhibition at 1 µM (NDP-α-MSH) [1]	Ki [2]	EC50 (nM), normal system (cAMP) [3]	intrinsic activity, normal system (cAMP) [3]	Ki [4]	Inhibition at 1 µM (NDP-α-MSH) [5]	Inhibition at 1 µM (NDP-α-MSH) [6]	Ki [7]	Ki [8]	Inhibition at 1 µM (NDP-α-MSH) [9]	EC50 (nM) (cAMP), High Receptor Density System [3]	Efficacy/Intrinsic Activity (cAMP), High Receptor Density System [3]	EC50 (nM) (cAMP), 0.1 ng/mL Doxycycline [3]	EC50 (nM) (cAMP), 10 ng/mL Doxycycline [3]	Efficacy/Intrinsic Activity (cAMP), 0.1 ng/mL Doxycycline [3]	Efficacy/Intrinsic Activity (cAMP), 10 ng/mL Doxycycline [3]	Substance
92%	453 nM	> 1000 nM	0.2	897 nM	63%	25%	300 nM	40 nM	35%	–	–	–	–	–	–	2-naphthylacetyl-1-amino-1-cyclohexane-carbonyl-D-Phe(4-Cl)-Arg-Trp-NH2 (peptide)
98%	125 nM	17 nM	0.3	338 nM	64%	46%	313 nM	7 nM	85%	180 nM	0.63	–	–	–	–	7'-amino-heptanoyl-Ser(Bzl)-D-Phe(4-Cl)-Arg-S-(-)-1-(1-naphthyl)ethylamide (peptide)
–	–	–	–	–	–	–	–	–	–	–	–	3 nM	0.9 nM	0.9	1	PT-141 (peptide)
